The record followed here is patent US20160222458A1 (AGENCY FOR SCIENCE TECHNOLOGY AND RESEARCH, published 2016).

The target of the assay is T1, Aurora kinase A (AURKA) (UniProt O14965 1-403).
T1 construct: also called AURKA-A; STK6
T1 sequence (looked up): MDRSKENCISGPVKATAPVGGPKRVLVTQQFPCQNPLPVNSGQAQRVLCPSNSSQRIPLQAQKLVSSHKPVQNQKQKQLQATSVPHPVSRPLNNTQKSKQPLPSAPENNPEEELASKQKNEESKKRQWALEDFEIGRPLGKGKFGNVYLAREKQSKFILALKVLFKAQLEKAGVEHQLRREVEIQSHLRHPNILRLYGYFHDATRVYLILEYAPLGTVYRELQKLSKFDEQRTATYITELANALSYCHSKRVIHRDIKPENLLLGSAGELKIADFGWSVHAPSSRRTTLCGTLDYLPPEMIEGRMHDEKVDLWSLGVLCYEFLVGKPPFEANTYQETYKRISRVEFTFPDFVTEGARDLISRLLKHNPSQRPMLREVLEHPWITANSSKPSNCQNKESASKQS
Briefly: co-immunoprecipitation from MDA-MB-436 lysate with anti-PRR11 antibody on CNBr sepharose, Western blot. The text has this:
Pelleted cells were lysed using lysis buffer (commercial Bio-Rad) and estimated proteins (Bio-Rad protein assay) and loaded equal amount of protein and separated by SDS-PAGE [28-30]. After transfer, the membranes were probed with commercial rabbit polyclonal antibodies of Actin, C6orf173, AURKA, MELK and PRR11 (Cell sciences, Sigma Aldrich). Commercial mouse monoclonal antibody available for BRRN1 was obtained from Cell Signalling. Commercial rabbit polyclonal antibody of E2F1 obtained from Thermo Scientific. B-Actin (cell signalling) was used as internal control to relatively compare the expression levels of 6-TAGs genes. Secondary antibodies (anti-rabbit and anti-mouse IgG horseradish peroxidase-conjugated) were purchased from GE Healthcare Bio-Sciences AB. Proteins were visualized using an enhanced chemiluminescence (ECL) reagent kit (GE Healthcare Bio-Sciences AB). Densitometry analysis of Western Blot images was done using ImageJ open source software.
For the immunoprecipiation 5 ug of the antibodies (rabbit anti-PRR11 and mouse anti-BRRN1) were coupled to the CN-Br sepharose 4 Fast Flow according manufacturer protocol (GE Healthcare Bio-Sciences AB) and such supports were used to capture the corresponding proteins from the NP40 cell lysates (usually 1×10^7 MDA-MB-436 cells were used for one probe). […]

B1: Proline rich 11 (PRR11/FLJ11029) (other, UniProt Q96HE9 1-360, looked up)
chain: MPKFKQRRRKLKAKAERLFKKKEASHFQSKLITPPPPPPSPERVGISSIDISQSRSWLTSSWNFNFPNIRDAIKLWTNRVWSIYSWCQNCITQSLEVLKDTIFPSRICHRELYSVKQQFCILESKLCKLQEALKTISESSSCPSCGQTCHMSGKLTNVPACVLITPGDSKAVLPPTLPQPASHFPPPPPPPPLPPPPPPLAPVLLRKPSLAKALQAGPLKKDGPMQITVKDLLTVKLKKTQSLDEKRKLIPSPKARNPLVTVSDLQHVTLKPNSKVLSTRVTNVLITPGKSQMDLRKLLRKVDVERSPGGTPLTNKENMETGTGLTPVMTQALRRKFQLAHPRSPTPTLPLSTSSFDEQN
notes: also called endogenous PRR11
Regarding B1, the binding result is reported as “no binding”.
